Reference: US20140128287, “SYSTEMS FOR INDUCTION OF GENE EXPRESSION AND PROTEIN DEPLETION IN YEAST” (THE TRUSTEES OF PRINCETON UNIVERSITY, published 2014)

B1: Zif in vivo target (three pairs of sites) (dsDNA)
DNA 1: GCGTGGGCGTGCGTGGGCGGGCGTGGGCGTGCGTGGGCGGGCGTGGGCGTGCGTGGGCG
DNA 2: CGCCCACGCACGCCCACGCCCGCCCACGCACGCCCACGCCCGCCCACGCACGCCCACGC
B2: 4Z in vivo target (three pairs of sites) (dsDNA)
DNA 1: GCGGCGGAGGAGTGCGGCGGAGGAGGAGCGGCGGAGGAGTGCGGCGGAGGAGGAGCGGCGGAGGAGTGCGGCGGAGGAG
DNA 2: CTCCTCCGCCGCACTCCTCCGCCGCTCCTCCTCCGCCGCACTCCTCCGCCGCTCCTCCTCCGCCGCACTCCTCCGCCGC

Assays:
[1] = molecular target: ZEV (Zif268 zinc fingers - estrogen receptor - VP16 activator) (synthetic construct, UniProt P18146 SEQ:1-87); test: cell_activity; yeast reporter, modified GAL1 promoter, 15 min after beta-estradiol
[2] = molecular target: 4ZEV (designed four zinc finger - estrogen receptor - VP16 activator) (synthetic construct); test: as above; details: tags: 4Z DBD replaces Gal4 DBD of GEV

Row | Binder | activity [1] | activity [2]
1 | B1 | > 50 fold induction of GFP transcripts | 
2 | B2 |  | > 50 fold induction of GFP transcripts
